Assay: soluble on expression in E. coli; label from the status in PepcDB or PDB records

| Sequence | soluble on expression in E. coli |
| --- | --- |
| MAHHHHHHMANIITLKSAWDVDRHIVLDSADKLVLIRFSSYTSAAVEAEEYSRQVKRGTATSTSTVAEGSSNSSSSALPTRKRRHDDADGNSACAVTSAATAALLSANVDEHYLRTRQMDALLSELAPKVRKYCTIYFVDTREVTAFNELYELGHDRDPFAVMFFYRNRHIRVDVGTGNNNKINFFAFEDLYDFLPIVDAAYKAGRQGRSIASCDRKFSTVALRR | soluble |
| MAHHHHHHMAPGVIPTVFRSERDREWAAQRFNYKKGSDDEERVARKRLLFARDRVHLPDDTVVETIRSPTEQLEELRALREHPPMHLLSEQLNSIAEESHRYAAALAAAAAAQPADPKDVASPASLRSDAAATSSLDGVALPPLPGAAAVVSSPPQVEIQFEDRSLFATAAILFRDRDDRVVRAMRFIGACGMVWKEVA | soluble |
| MAHHHHHHMAVLIKNNEASLVDMAVQDFIKLGIDGVYTTMKTVVSFEYIFNFTSHMRNLHKYSTNFLELQINGHNKECVTNILQNLTLENIRKSTSTSIKAGFEFINTLNDDIKKKYFSENLNYMVMVTITWDIHTDNRIPSNEPFSILCYIKCLPKHSNNVQIDIMCGERKTPNIKYSNVFDVRNKMLKLKSEDSHEVVLYNEKEEITEGLTCNFFCFFNDTLYTAKDELVLKGTMREQIIQICEEVGITLKRKVST | not soluble |
| MAHHHHHHMCVHTFVRMNAWMCSSLSITQQNTITPPHYMQNSAFRVASLLQSRHRRGICDEGESTLAKLTQGVEMFLQHAADVPPVMLEKLSEVGDADTSTNGCSERHDDVDESMDEAEVHLSVVAGVLEPREMPKNVSTMSGLLLPTADNRKALERQKVEEAQAMLNLLAALTANNKKENTIGALTGTSEAEVDDESTTTSDESVVICYADELESDTTSSCSEADAQQEPQRSARIIELN | not soluble |
| MAHHHHHHMCVPFKDQGQWIRQVALQVEEVAPSERGTDRPAAATPRHHMSVGVVDYYSKCGRICETVAVLCEEWMDSGYMDGFSSRLVKEANAGRSISDAPHRDAVFDSFCAPSPHCKKHAIFVRELDLALTTDTELRASIDADRPQEIETEEREMETMLHRLTREQGQSADVFSRDEIRRMKEAFVTGNKEDLQAVDPTAFDLTDDEFSTLKDYMHGEERKQQQQQRQRRPSAPSDADDL | not soluble |
| MAHHHHHHMDAFRSLTIGTKFSAARNEEAAKLFRNAGKDKGSHGFPDAIGADGAVTLENASDMGSSSLSVPPPSATLNLFGRPTRSHADANAHLGVSAGSDAAAAANTASENKALKAITFKKKRNIWRRNDLQVTGTDLPAPIEHFSDLVRPPLNVPRNVVNNLFARQHKVPTPIQMQAISSLIHHRDVLACAPTGSGKTIAFLVPLFALLKAPDASCGVRALIVTPTAELAQQIEREAFFLMKGQRWKFVQHGQTTKKKDIFIATPGRILSLLEQKLLDLSNVQYLVFDEGDRLWDSRTDFLTVIDRILTACTRTDKVVSLFTATLSEKVEAAARSVMGADPVRIIVHGRRSANTHVKQRLVFCGNELGKVVAMRNLVREGITPPVLVFVQSVERSKELYEEIRMEGLHMAIMHAKMTVEQREETVLQFRLGKIWVLVTTELLARGIDFKNVGTVINFDFPATVDSYIHRVGRTGRAGKEGTAITFFTEDDKERLPPIAKVMQDSGNAVEDWILGIKVDRSTRRRLERTTPQRTIVSTRKRMLVAQQRVQRQYRRLEAEKAAKQASKRSKGCGDCDRDDGDDSTDDA | not soluble |
| MAHHHHHHMDEGDHSDKESVGEEIVGEDHVEDKDGKPKRSYEKMVEEIKIENSKSFISKISEPLLKKKYFKYFLKILDYAYYAKVTAMQIIKTNEQIEERKKKILKNKFVVIGITQVVKAIRKGVDGIVFLAIDVFPIDIICHMPVFCEEHKIPYTFVTTKNKLARLCKLKRSVTCLFLPKPNIDIDKFEATVNEFSSKKKISNYAKLYEKMLSGVKKNHPFFQS | soluble |
| MAHHHHHHMDRRHLELEDAQERASAEEVATQASAEHKHYMNDSDEDSDEENGIDDEQSASLVAMLRTQEEIDSAIAGFTKGTRMLLASSGNGYVSYLDGSVHFTIAKVESHNASNREKVMQALAGTNVAMPTAEEYSLEEVRQAMHDRDTARKKLDALRALQDPTYTARIRSAEKDTYGTPVQQLMEEDGDMSALVANCEDAKRFAESVRKAYNSRAAASAHALACALCTPPFTAEQESTSEAQAPAGKMANAEDGVSQPTGANSPSSSTSAQ | soluble |
| MAHHHHHHMDSQTPHGDVVDEATMAVLPEHGLIFSEIKQMQLLLCKPKLLPVKSYSLEKLEKMEKKLAREAKEKRDANRAQRQAPLVWTSPDLTAGEGVKTIPAPSPLVTVAPAPPQNVASTPLRDGGATPPSAAPAVASSASSRGAASQETLSFTPVHTEGETCADASMSAPERSPRISPSTDVSSSSPSPSASTTD | soluble |
| MAHHHHHHMDVKEYTHNIIDIDISNHIKIRSSNNYNNKKLKETIRQNAKKIRDITFKYWIKEKQLQSGNFVINDENINDKMIIENKKDIINNINNDKKISYSYVDSFQTCVTNSKDEEGVLYIDDLYTYLIRQLYILFCSLEVRKKKNNVQFDFTRIYKYTYNYKKLESHISYEYLKKYDINDDIIKNDIENFHFYAYDHNIEDPKKYCDMEENYNNANYNICIYLPTKKEIDILFIIDQLYDYFYFVLYVPITTKEKDLIFFPFNIKNNLLVQYHFNIFIPYDYIYYTTYKKMNNFILNYSKIVKNYELSNSLYKHNDTIILIPLIAYNKLGYRIGSGKGYYDKTLTKTRKKNDIIKQIKNIQMNDNIITNNKDHDIQKENHLYLGTKNDTNNIICSNVKNIKHKTFNNEIEIYTQNKQKIYFNEIKIGVSFEMFLYDIDFSETTDLILDYMINENNIYHFIL | not soluble |
| MAHHHHHHMEAGTSPIRAGSSDGGGSVRGDIFRRHSVNSGENNMNDNKDNDSNTEWSEQFRLIARRMSRALLRNPHPDVQTDKRVMYGVLYELFEQWSERQQRAHSVSLTVEQVGSILRYGEQTLRQASLTAPALNKAQVVVDLIAASPLITIGALTQELRGLQPPVVLTPMAEVLELARLLDVSQGVRTPVGAVNLVHFIALSSTLCPAPDMGALLLLVASNVKRCHLLCAAIYYEWAMIDAQNREGLLLLSRELEEKHQQMCEGFTVDILTPLLTGSFEPFGARPTDPVAVDYLGMGSLPCTGTAEEQQRCHQLAPPSGNELEPTCEDSDTGGHGEGDCESSVEDEYDSDCRDTVDTEFWLRLSS | not soluble |
| MAHHHHHHMEDMYEMQHSNLRCLPENYNLRYYYYHLLSWPQLLYVQQDYNRNTVGYVLGKMDDEEVPDKKHGHITSLAVLRSHRKLGIASRVMRATMKEMDAEYGAHYCSLHVRKTNDAALHLYQDTLGFRCVGVEEKYYMDEEDAYHMKSFFHQANPGSYVDDHKRLIRKTVPGELEGGPAAAGASSPAVGGRGGDKNGKRGNDKAAKEISAKEREAAMAELLGLEVGGKGRAAGGGAGGKGKSGNSSGGGGKRGSGRQK | soluble |
| MAHHHHHHMEGSSGHLKSTAVAHNDGQALPPAAGAGHAPPTSNAAAGQQKTDQPPIAAVPVMSVAERAAATAEAERALSLLCTIRAVRRQTEELTVLLLHACGEWGCWSVPTAEEGVACETTRTPLPSSPLPGRIRHSQHLFADLFVAAPLAPTAFCTSSSVSLVGVSDGTAKADLLDLSAGEDADPARLSAASVFAKESACRRERACQALRQALQQQQQRWSLSTAAAATATLAAGAAFLEMALAPPQRAVPPPPPMSVQLDLYAVQPCALQRSIQEWRPRAAQTTAAGATKAGGTSPPEEAASLHCSLQQLLHTLGRQGPQLQSSYDVLHAAAGQRHRTNTRSCTDEQRGVPPREATTGVIKAAEARAVVHKTHGTSAAASDAPQEVEVPPLPSSSSPLAVAPDTLRRTPSSLPRQHSSTTPSSSSQALPSSDTLLSSPVQLAVDHTRLWADPPTPLQRADFSCAAAAAPTSTEISERGARIPVHQAGRSVLEDASSHRTKGKPELEAHVEVEVIGGNADGSHAAAGASSSNSTQVTNMRRTSLSSSTFFHSPVAVDARGGVVGALREVYEASWQPCSNARPSTRPEAAHAVAVAEEKLASQHQEERRSRRCDRGGSATAVELEDSVRRHLTRWMSQQPNDRAWVSGGPGLGPASFLLDPIRHAPGSSRAATRATDATAPALGQGAGRDRRGSRRAVHSGVRVDPIREHAREEGAGAGTESPLDAWPRPGARTAGPRGPGCSRSAAEMSELQLCMCVLLA | soluble |
| MAHHHHHHMEKYEFPEDYVNPRNIPRIAYIPDVAAYVSNGGGADTVISNLLMESSKYEHMEKRLVSSLANLDYKIPTIKKTLNSLEFLQKQLEEAEQQEEDGKRAGIRSYYCLTDSVFGEAIVRPQKTVHLWMGAKVMVEYTFEEASALLKKNLSNAEVNMRNTKEDLAWLQEQITNLQINISRVYNYDLKNKRAKD | not soluble |
| MAHHHHHHMEPYASPAAVPPPHVVYDALSKAQKAAPQLRPIPAFEVYKVAREEELAAYRMLCRVLFMHHGTPLPKAQQRILDDMGEDLCIGQTRQGLEKEMAEQDKVLQGIRKSGVLRRRGDFTDGVEEMTVEDYLAEAPKDDGNGLFMPTSKVRRVDGADSGATRATVIAAAAGLGAKRKGNVHAAVSKLAKEAETAGKSLLYASSAQEEQQLIQVLQQKRELLVALREELTEA | not soluble |
| MAHHHHHHMEVKEVQPQKRLQPACDAKGENGFPLTIPCERQKVANLAPHRPLRRFLEAMRADNQNLCALKGSAVHHLKKDLRGDEKQVVLSCETPSRSNRLREKYECMKKMRFNETQEALARECDLSRIIIELQKRIEDAEASREFEREVHARESFYLLKENECLKEQVRTTEKMLLDVRNNYNLEISKLNTRVSDLEDSLVAEGQRAKTREAEQERAIQNLCSNLYTTQGELERYVEKNRELASVNSLLEEMRAESWRDKRECTVWYEVLRRREVFMLLEREAFTELQCLCMQEMNRFWQIKDDSYQAMFCSEAERFLGHIIREAEICYEMKQLMFDNATASIEKETWISLHFSKVQELSRLSEKHEALSILLAQYMREVEEIQQGNLEQVLRRKTVDDASIAYMLHQRDNEVSDKLRTWKGALQEAHKLLTALLKRYEPFQRGDEVFVGRVMEWLISAPHVKEVINVFLP | not soluble |
| MAHHHHHHMFAALSWLLDLDQGHAASSSSTSSCSSYSGSLDADAGVETDPAANHTTFSDAGGQLLAELHISSVAAATLSRSASEAAAPPRGAVYSSARHLEESFADLEARKAEFFAPSPCQEPAEDAGLGLSSLTERGGTPVSPLSCKIVPLGSLCAYANETVSLSPIASPVPAPVSATVATLLAPTHEDERLLLVSEGVMLSARLSSPSRGGPRAAAERAKITNNDGSATGAMGAGVAAPTQRSRILDWDREMHARPQASPPPGLSANRGERAVRSGTGVQERSEQIADAEPGEARLVRGAMKAAFMLSTPPHTPALGAAAFAPAAVPLHPSPPFLGTTVGARDAAVPGYSIERIHDTPAQEDSGVVYLADGLATVTSMDVGDLHRQAEQSSPPLTHPLAAQLTTPSHTKQPHFDFS | not soluble |
| MAHHHHHHMFHRHSFYEKGSSAPRDGAGAGADGTQAHGGAAGGSCNNGGTSSSSTASSQQQREQDERLYGMGSATAQQRRQVRQQWEKSFFGRLHYEEGMHDRFSEALKSEDAEAFRQSIAGQSHADLFPHWPEEEEAPLSEFKRLRPSLQLHYIVNRLSSGERRIRYSVDFGGLLMMPQLNLGEMMVKEADTLLRELGWMNDEVAMRIEEVQALASKIKFDFDLD | soluble |
| MAHHHHHHMFLTFVRHTPPKTPRNVFFPWQNFSIHKSGSFLEKNRLALRVPINLTKFEIREYLRKIYNAKVIKVNTLIKVPERRRNLTDFRFNYYRNGPRYKKAIITLEHEVPDSVKMIQSCKNIGRNPYITKKNVIYGVRSDVKITPTRSQLWQMGECRYSWRLPLTNLLADYKMNLNPDLRIDENLVQLAPDMTKPFMHSGISSQTFKPSSVPEQTFPKVIFFFFQKGDVLA | soluble |

Source: the DeepSol protein solubility set
